Laboratory results as given in patent US20190144529A1 (UCB, published 2019).
“And” between values parts separate entries of the source, which are not always exact repeats. Equal values may be shown once. Read-outs that look alike come from different tables or passages of the source.

Experiments:
[1] = target: T1, human serum albumin (human, UniProt P02768 25-609); experiment: SPR at pH 7.0
T1 construct: mature; Bought purified serum albumin; also called HSA; Human albumin
Description: (§1) For analysis at pH 7.0, 6.0, 5.5 and 5.0, a running buffer of 40 mM citric acid, 80 mM sodium phosphate 50 mM NaCl, 3 mM EDTA, 0.05% v/v P20 was used. The required pH was achieved by altering the ratio of citric acid to sodium phosphate. All experiments were performed at 25° C. The antibody samples were captured to the sensor chip surface using either a human F(ab′)₂-specific or human Fc-specific goat Fab (Jackson ImmunoResearch). Covalent immobilisation of the capture antibody was achieved by standard amine coupling chemistry to a level of 6000-7000 response units (RU).
(§2) Each assay cycle consisted of firstly capturing the antibody sample using a 1 min injection, before an association phase consisting of a 3 min injection of albumin, after which dissociation was monitored. After each cycle, the capture surface was regenerated with two 1 min injections of 40 mM HCl followed by 30 s of 5 mM NaOH. The flow rates used were 10 μl/min for capture, 30 μl/min for both the association and dissociation phases, and 10 μl/min for regeneration. A blank flow-cell was used for reference subtraction and buffer-blank injections were included to subtract instrument noise and drift.

[2] = target: T1, human serum albumin; experiment: SPR at pH 5.0
Description: as §1, §2

[3] = target: T1, human serum albumin; experiment: SPR, Fab captured, albumin titrated
Description: as §1, §2

[4] = target: T2, rat serum albumin (rat, UniProt P02770 25-608); experiment: SPR, Fab captured, albumin titrated
T2 construct: mature; Bought purified serum albumin; also called RSA; Rat albumin
Description: as §1, §2

[5] = target: T3, bovine serum albumin (bovine, UniProt P02769 25-607); experiment: SPR, Fab captured, albumin titrated
T3 construct: mature; Bought purified serum albumin; also called BSA; Bovine albumin
Description: as §1, §2

[6] = target: T4, mouse serum albumin (mouse, UniProt P07724 25-608); experiment: SPR, Fab captured, albumin titrated
T4 construct: mature; Bought purified serum albumin; also called MSA; Mouse albumin
Description: as §1, §2

[7] = target: T5, cynomolgus serum albumin (cynomolgus, UniProt A2V9Z4 25-608); experiment: SPR, Fab captured, albumin titrated
T5 construct: mature; Bought purified serum albumin; also called CSA; Cynomolgus albumin
Description: as §1, §2

[8] = target: T6, rabbit serum albumin (rabbit, UniProt P49065 25-608); experiment: SPR, Fab captured, albumin titrated
T6 construct: mature; Bought purified serum albumin; also called RbSA; Rabbit albumin
Description: as §1, §2

[9] = target: T1, human serum albumin; experiment: SPR, Fab captured, albumin titrated; remark: listed apart in the source
Description: as §1, §2

[10] = target: T4, mouse serum albumin; experiment: SPR, Fab captured, albumin titrated; remark: listed apart in the source
Description: as §1, §2

[11] = target: T1, human serum albumin; experiment: SPR, Fab captured; albumin taken as HSA
Description: as §2

[12] = target: T2, rat serum albumin; experiment: SPR
Description: as §1, §2

[13] = target: T4, mouse serum albumin; experiment: SPR
Description: as §1, §2

[14] = target: T6, rabbit serum albumin; experiment: SPR
Description: as §1, §2

[15] = target: T1, human serum albumin; experiment: SPR, Fab captured; albumin taken as HSA; remark: listed apart in the source
Description: as §2

[16] = target: T1, human serum albumin; experiment: SPR at pH 6.0
Description: as §1, §2

[17] = target: T1, human serum albumin; experiment: SPR, Fab captured, HSA
Description: as §1, §2

[18] = target: T1, human serum albumin; experiment: SPR at pH 5.5
[19] = target: T1, human serum albumin; experiment: SPR, Fab captured; albumin taken as HSA; remark: listed apart in the source
Description: as §2

B1: CA645 gL4gH5 Fab (Fab, V domains shown)
VH: EVQLLESGGGLVQPGGSLRLSCAVSGIDLSNYAINWVRQAPGKGLEWIGIIWASGTTFYATWAKGRFTISRDNSKNTVYLQMNSLRAEDTAVYYCARTVPGYSTAPYFDLWGQGTLVTVSS
VL: DIQMTQSPSSVSASVGDRVTITCQSSPSVWSNFLSWYQQKPGKAPKLLIYEASKLTSGVPSRFSGSGSGTDFTLTISSLQPEDFATYYCGGGYSSISDTTFGGGTKVEIK
notes: Humanized Fab: human gamma1 CH1, human kappa constant region (Km3); parent of all mutants; also called CA645 Fab; Fab_645
- Kd [1]: 13.3 nM
- Kd [2]: 7.1 nM
- Kd [3]: 4.6 nM
- koff [3]: 0.00041 s⁻¹
- kon [3]: 90000 M⁻¹ s⁻¹
- Kd [4]: 54 nM
- koff [4]: 0.0013 s⁻¹
- kon [4]: 24000 M⁻¹ s⁻¹
- binding result [5]: no binding
- Kd [6]: 7.1 nM
- koff [6]: 0.00034 s⁻¹
- kon [6]: 48000 M⁻¹ s⁻¹
- Kd [7]: 3.3 nM
- koff [7]: 0.00035 s⁻¹
- kon [7]: 100000 M⁻¹ s⁻¹
- Kd [8]: 162 nM
- koff [8]: 0.00029 s⁻¹
- kon [8]: 2000 M⁻¹ s⁻¹
- Kd [9]: 1.8 nM
- koff [9]: 0.0004 s⁻¹
- kon [9]: 220000 M⁻¹ s⁻¹
- Kd [10]: 2.2 nM
- koff [10]: 0.00068 s⁻¹
- kon [10]: 310000 M⁻¹ s⁻¹
- Kd [11]: 2.97 nM and 3.8 nM
- koff [11]: 0.000167 s⁻¹ and 0.000211 s⁻¹
- kon [11]: 56200 M⁻¹ s⁻¹ and 55700 M⁻¹ s⁻¹
- fold lower affinity for RSA than for HSA [12]: ~10 fold
- fold weaker affinity for MSA than for HSA [13]: 1.2 fold
- fold reduction in association rate for RbSA against HSA [14]: 18 fold
- Kd [15]: 2.72 nM and 2.7 nM
- koff [15]: 0.000161 s⁻¹ and 0.000158 s⁻¹
- kon [15]: 59100 M⁻¹ s⁻¹ and 58600 M⁻¹ s⁻¹
- Kd [16]: 12.5 nM
- Kd [17]: 1.23 nM
- koff [17]: 0.000172 s⁻¹
- kon [17]: 139000 M⁻¹ s⁻¹
- Kd [18]: 10.7 nM
- Kd [19]: 2.14 nM and 2.51 nM
- koff [19]: 0.000123 s⁻¹ and 0.00014 s⁻¹
- kon [19]: 57500 M⁻¹ s⁻¹ and 56000 M⁻¹ s⁻¹
